In the supplement of paper PMC9170038:

Test system: MS2 coat protein
Test: apparent KD of MS2 coat protein; higher = weaker reporter binding
Conditions: Eterna round: R107
Summary of the method: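 Apparent KD is reported per design as the median of normalised binding-curve fits across its clusters. The RNA switches were made by on-chip transcription from Illumina sequencing clusters. SNAP-549-labelled MS2 coat protein was then added in twofold steps (0.7 or 1.5 nM to 3 µM; 0.8–1.5 h to 10–20 min per step) in 100 mM Tris-HCl pH 7.5, 80 mM KCl, 4 mM MgCl2, without or with constant ligand.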

[1] = input ligand: theophylline 20 uM
[2] = input ligand: theophylline 2 mM
[3] = input ligand: tryptophan 2.4 mM

| Sequence | apparent KD of MS2 coat protein (input ligand: arginine 13.2 mM) [nM] | apparent KD of MS2 coat protein [1] [nM] | apparent KD of MS2 coat protein [2] [nM] | apparent KD of MS2 coat protein [3] [nM] | apparent KD of MS2 coat protein (input ligand: none) [nM] |
| --- | --- | --- | --- | --- | --- |
| GCAUCCUAGUCGGCCGCCACUGCAUGUAGUUUUGCUACAUGGAAACAUGAGGAUCACCCAUGUAGCAGGACCGGGACUAGGAUGC [(Trp1)-(TM)''-(TM)'-(Ms2)-(Trp2)_Design7] | 30.7 | 36.2 | 36 |  |  |
| GCAUCCUAGUCGGCCGCCACUGGUAUGAACACCUUCACCCGUGUGCACAUGAGGAUCACCCAUGUUAGGACCGGGACUAGGAUGC [SSTryp B #20] | 10 | 11.2 | 9.67 |  |  |
| GCCAAAAUACCCGAUACCAGUAUUAAUAGCACAACCUCACACAUGAGGAUCACCCAUGUAUACCCUUGGCAGCGGCCUAACAUAA [theeternabot_exclusion_MS2_Theo_B_49] | 30.5 | 55.3 |  | 36.9 |  |
| GCGGUGGGUCAAAAGUAAUAGAAUUCUGAAGGAGCGUGAUGAAACACAGGUAGGUCGCAGGAACAUGAGGAUCACCCAUGUACGG [Same State Arginine A GF21] | 34.4 | 49 | 37.5 | 35.7 | 34 |
| GCUAGCCGAAAGGCUAGCAGCGCUACAGAAGGAGCGUGCGAAAGCACAGGUAGGUCGCUGAACAUGAGCAUCAGCCAUGUUGCGC [SSAA - Alter Amptam #2 V2+NP] | 14.8 | 18.5 | 18.6 | 11.7 | 12.2 |
| GCUAGGUCAUCGGCCGCCACUAUUAGUGGUUCGAACAUGAGGAUCACCCAUGUGCCACAUGCGCAUAGGACCGGGAUGACCUAGC [SSTB NP+V+V2 #8] | 11.8 | 18.2 | 13.7 |  |  |
| GCUAGGUCUACGGCCGCCACUAGACGUGGGUAAAACAUGAGGAUCACCCAUGUGCUACGGGCGAAUAGGACCGGGUAGACCUAGC [SSTB NP+V+V2 #15 +-Same Structure] | 60.1 | 529 | 711 | 85.4 | 368 |
| GCUAGUGGCAGAAGGAGCGACAUUAAAAGUGGUCGAUACAUGAGGAUCACCCAUGUACUAUGUCAGGUAGGUCGCUGCCACUAGC [EAB NP+V+V2 #4 +-Same Structure] | 27.8 | 39.1 | 36.6 | 30.7 | 30.7 |
| GCUGGGUGCGCAAGGACCUGGCGUUGCGAUACCAGCACGGUAACGUGCCCUUGGCAGCGCACAUGAGGAUCACCCAUGUGGUGUU [#1 Exclusion - Theophylline A Attempt #19 (HarryS)] | 62.8 | 360 |  | 221 |  |
| GCUGUUGCGGUGAGGUAUCCGGCUGUGGAAGGAGCGCGGAAGGCCGCAGGUAGGUCGCCACAUGAGGAUCACCCAUGUCGAUAUA [Aninati] | 48.7 | 80.6 | 28.3 | 16.8 | 16.9 |
| GCUUGGGUGGCACAGCCCUGGCAGUGCGAUACCAGCACGGUAACGUGCCCUUGGCAGCGCACAUGAGGAUCACCCAUGUGGUGCG [#1 Exclusion - Theophylline A Attempt #25 (HarryS)] | 28.7 | 197 |  | 62.6 |  |
| GGAAUAAUGGCGGCCGCCACUAACUCAUAUACAUCAUGUACAUGAGGAUCACCCAUGUAGGUGUAUAGGACCGGGCCAUAAUUCC [39MS split4] | 20.1 | 27.3 | 25.1 |  |  |
| GGACUAACCAGAAGGAGCGACACGCAGAAACUGCAAAUUCCUCUGCACGAGGAUCACCCGUGUCAGGUAGGUCGCUGGUUAGUCG | 29.9 | 35.5 | 36.6 | 26.9 | 27.4 |
| GGACUAACCAGAAGGAGCGGCGCGCAGAAACUGCUAAUUCCUCCGCACGAGGAUCACCCGUGUCAGGUAGGUCGCUGGUUAGUCG [ArgBX 28] | 10.3 | 12.4 | 13.4 | 11 |  |
| GGAGUAGGAAACUAUUCCAAUCCUCGUGAACGAGGACCGGUACGGCCGCCACUCGAUAAAUAAAUACAUGAGGAUCACCCAUGUA [Ex Tryptophan A 22] | 20 | 28.9 | 34.1 |  |  |
| GGAUAGGACACGGCCGCCACUACCUAGGAUACUAGCAACAUUUGGGUACGUGAGGAUCACCCACGUAGGACCGGGUGUCCUAUCG | 15.2 | 19.1 | 14.5 | 20.4 |  |
| GGAUAGGACACGGCCGCCACUAGCUAGGAUACUAGCAACAUUUCCUCAUAUGAGGAUCACCCAUAUAGGACCGGGUGUCCUAUCG | 215 | 389 | 471 | 1140 | 376 |
| GGAUAGGACACGGCCGCCACUGCCUAGGAUACUAGCAACAUUUGGGUACAAGAGGAUCACCCUUGUAGGACCGGGUGUCCUAUCG | 27.1 | 38.6 | 29.3 | 26 | 25 |
| GGAUAGGACAGAAGGAGCGUGAGAUGCAUACCUUCAUUCCUCACAUGAGGAUCACCCAUGUCACAGGUAGGUCGCUGUCCUAUCG [#20 Exclusion - Arginine B] | 64.8 | 108 | 96.5 | 90.7 | 93.5 |

| Sequence | apparent KD of MS2 coat protein (input ligand: arginine 13.2 mM) [nM] | apparent KD of MS2 coat protein [1] [nM] | apparent KD of MS2 coat protein [2] [nM] | apparent KD of MS2 coat protein [3] [nM] | apparent KD of MS2 coat protein (input ligand: none) [nM] |
| --- | --- | --- | --- | --- | --- |
| GGCGACAUGAGGAUCACCCAUGUGACACCUCGAGGACCGGUACGGCCGCCACUCGUAACCUGCACUAUAGCUACCACGAUUAGCC [theeternabot_sameState_MS2_Trp_A_44] | 84.3 | 238 | 233 |  |  |
| GGCGUCGGGCGAAGGAGCGUGAAGACAUGAGGAUCACCCAUGUAGAGGCCCGAACAGGGUUCGCAGGUAGGUCGCGCGCGGUGCC [#1 Same State - Arginine B Attempt #6 (HarryS)] | 11.5 | 24.7 | 21.4 | 15.6 | 13.6 |
| GGGAGGUAGGCGGCCGCCACUGAUUUUCAUAUAUAUAUAACAUGAGGAUCACCCAUGUAGAUAUGCAGGACCGGGCCUGUUUUUU [aaaK] | 18.8 | 30.5 | 26.3 |  |  |
| GGGCAAGAGGGAAGGAGCGUCAGCUGAGUCACAUGAGGAUCACCCAUGUCGCACAUAGUGUGACAGGUAGGUCGCCCUCUACCCU [Esceinan] | 57.8 | 167 | 107 | 89.3 | 124 |
| GGGCGCGUGGACCGGCGUGCUCCGCUCCGUCGAGGACCGGUACGGCCGCCACUCGACAUGAGGAUCACCCAUGUGCGAGCUCGCG [#1 Exclusion - Tryptophan A Attempt #15 (HarryS)] | 16.2 | 39.8 | 32.1 | 191 | 19.3 |
| GGGUACAUCGCGGCCGCCACUCAUGUAAAUACAUGAGGAUCACCCAUGUCGAUGGAGACAUCGGAGAGGACCGGGCGAUGUACCG | 224 | 352 | 540 | 264 | 398 |
| GGUACAUGAGGAUCACCCAUGUAUGCGAGCCGAGGACCGGUACGGCCGCCACUCGCUUAACAUGAGGAUCACCCAUGUUUCUCGG [SSTA DOUBLE!!! :-D #15] | 90.9 | 157 | 120 | 108 | 94.9 |
| GGUACAUGAGGAUCACCCAUGUGUCAUGAUACCAGACAUGAAAAUGUCCCUUGGCAGCAUGCCAGACGGCCGCGUUUAGCGGCCG [Oresin] | 18.6 | 19.7 | 19.6 | 16.3 | 12.8 |
| GGUCUCUGGAGCGAUACCAGCUUAAAUGUACUGGCCAGGUACAUGAGGAUCACCCAUGUAAGCCCUUGGCAGCGCUCCAGAGACC [#1 Exclusion - Theophylline B Attempt #13 (HarryS)] | 12.3 | 13.8 | 39.2 | 13.5 | 13.9 |
| GGUGAUCCGUAUCACCGGAUCAUCGGUGAUACCAGCAUCGAAAGAUGCCCUUGGCAGCACCAACAUGAGGAUCACCCAUGUAAUA [(M)'-(T)'-(M)''-(T1)-(T2)-(M1)-(M2)_Design6] | 70.3 | 67 |  | 98.4 |  |
| GGUGGGACUUGUGAUACCAGCCUAAUUCGAAUCGAAUUGCACAUGAGGAUCACCCAUGUCGGCCCUUGGCAGCAUGAGUAUUUAU [Aagexe] | 104 | 129 |  | 255 |  |
| GGUUAACAUGAGGAUCACCCAUGUCUUGAUACCAGUCGUUAUCUUGACCCUUGGCAGCAAGAUGACCGUUAGCAGCCGUCUUCUC [theeternabot_sameState_MS2_Theo_A_45] | 11.9 | 16.6 |  | 13.2 |  |
| GGUUACUCUACGGCCGCCACUGGGCAUGUAAAUAACAUGAGGAUCACCCAUGUGGAUUAAAAUUACAGGACCGGGUAGUGUAACC [Tryptophan B 21] | 86.6 | 239 | 345 | 36.1 | 300 |
| GGUUGGUGUGGAGACAUAUUGAUCACUGAAGGAGCGGGAAUAAACCCAGGUAGGUCGCAGAGAUCCACAUGAGGAUCACCCAUGU [!0.Q] | 80.8 | 68.9 | 86.6 | 36.2 | 40.2 |
| GUAACACAUGAGGAUCACCCAUGUUCCGAUACCAGUAUUGAAGAUUACCCUUGGCAGCGGGUAGGUCGGAGUGGACGGCCCGAGC [theeternabot_sameState_MS2_Theo_A_8] | 17.9 | 25 |  | 23.7 |  |
| GUAUAGUCUCGAAGGAGCGUCACAUGAGGAUCACCCAUGUACAUGAGGAUCACCCAUGUGUGGCAGGUAGGUCGCGAGCUAUACC [Exclusion Arginine B GF8] | 136 | 228 | 281 | 312 | 265 |
| GUAUGGAAACAUACUAGGGUAUCAUGAGAUACCAGUACAGAAAUGUACCCUUGGCAGCUCUAGCAUACAUGAGGAUCACCCAUGU [Ex Theophylline A 6] | 15.4 | 20 |  | 12 |  |
| GUCAGAACAUAUCAUGUUCUGGCACUGGAAGGAGCGAGCGAGAGCUCAGGUAGGUCGCCAGAACAUGAGGAUCACCCAUGUAAUA [(A)''-(M)'-(A)'(Arg1)-(Arg2)-(M1)-(M2)_Design11] | 50.5 | 95.2 | 296 | 49 | 63.4 |
| GUCAGUAGAACAGAUACCAGUCAAAAGCUGUGAUCUCAUAACAUGAGGAUCACCCAUGUUGACCCUUGGCAGCUGUGGGCGAGGG [#19 Exclusion-TheophyllineB] | 27 | 29.1 |  | 19.1 |  |
